Measured values reported in article PMC4876929 (Nature, 2015).
Like-named read-outs stand apart in the source and are kept apart here.

Legend:
[1] = biological target: the molecule itself; assay: crystal structure
[2] = biological target: the molecule itself; assay: crystal structure; remark: listed apart in the source

| Protein | stoichiometry N [1] | stoichiometry N [2] |
| --- | --- | --- |
| Fluc channel from Bordetella pertussis (Bpe), R29K/E94C, Hg-labelled (natural protein, Hg at the unique cysteine (E94C), labelled with Hg(II) acetate) MLTYAPLNFIAIGIGATLGAWLRWVLGLKLNGAGWPWGTLTANLVGGYLIGVMVALIASHPEWPAWIRLAAVTGFLGGLTTFSTFSAETVDMLCRGVYATAAAYAGASLAGSLAMTGLGLATVRLLLR | 2 |  |
| Fluc channel from Bordetella pertussis (Bpe), R29K/E94S (natural protein, UniProt Q7VYU0 1-128, looked up) MLTYAPLNFIAIGIGATLGAWLRWVLGLKLNGAGWPWGTLTANLVGGYLIGVMVALIASHPEWPAWIRLAAVTGFLGGLTTFSTFSAETVDMLSRGVYATAAAYAGASLAGSLAMTGLGLATVRLLLR |  | 2 |
